# Data reported in paper PMC5934625, “A structurally conserved motif in γ-herpesvirus uracil-DNA glycosylases elicits duplex nucleotide-flipping”.
# T1: kUNG (kUNGΔ18), uracil-DNA glycosylase (Kaposi's sarcoma-associated herpesvirus …, UniProt F5HFA1 19-255)
# T1 sequence: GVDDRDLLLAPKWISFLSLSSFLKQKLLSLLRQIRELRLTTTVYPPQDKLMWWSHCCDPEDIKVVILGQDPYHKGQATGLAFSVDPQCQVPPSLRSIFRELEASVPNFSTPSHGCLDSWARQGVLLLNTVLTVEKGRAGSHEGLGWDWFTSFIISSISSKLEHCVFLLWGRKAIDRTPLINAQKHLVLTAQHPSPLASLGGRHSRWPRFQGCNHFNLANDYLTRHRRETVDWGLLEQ
# B1: 5'FAM-idu_2 duplex (dsDNA)
# DNA 1: AAAGATAACATT
# DNA 2: AATGTUATCTT
# modifications: dU at position 6 of strand 2; converted to abasic site (beta-anomer deoxyribose) in the product complex, no density for uracil
# Molecular target: T1, kUNG (kUNGΔ18), uracil-DNA glycosylase
# Assay: X-ray crystallography; product complex after uracil cleavage; 100 mM Mg acetate in crystallisation; Crystallisation: protein:DNA 1:1.2, annealing buffer 20 mM Tris-HCl pH 7.4, 100 mM NaCl, 20 mM MgCl2; crystals in 100 mM sodium acetate pH 4.5, 100 mM Mg acetate, 8% PEG 8000, 16 °C. Km/Vmax of mutants (Table 3) are turnover only and left out.
# Conditions: protein: recombinant; tags: N-terminal 6xHis-TEV cleaved; Ser-Ala-Ser remains; label: 5'-FAM on strand 1; 5' overhang 1 nt (strand 1); U:A pair
binder,measurement,value
B1,binding result,binds
